Results on two molecules are retold here after patent publication US20040073001A1 (Kyowa Kirin, published 2004).

Assay [1] concerns the target T1, GFP-B9L (full-length), full-length B9L cDNA in pEGFP-C2 (plasmid pEGFP-C2B9L) (mouse, UniProt Q67FY2 1-1494).
T1 construct: expressed in mouse 3T3 cells; also called full-length B9L protein; not shown: green fluorescent protein (GFP) as encoded by vector pEGFP-C2 (Clontech)
T1 sequence: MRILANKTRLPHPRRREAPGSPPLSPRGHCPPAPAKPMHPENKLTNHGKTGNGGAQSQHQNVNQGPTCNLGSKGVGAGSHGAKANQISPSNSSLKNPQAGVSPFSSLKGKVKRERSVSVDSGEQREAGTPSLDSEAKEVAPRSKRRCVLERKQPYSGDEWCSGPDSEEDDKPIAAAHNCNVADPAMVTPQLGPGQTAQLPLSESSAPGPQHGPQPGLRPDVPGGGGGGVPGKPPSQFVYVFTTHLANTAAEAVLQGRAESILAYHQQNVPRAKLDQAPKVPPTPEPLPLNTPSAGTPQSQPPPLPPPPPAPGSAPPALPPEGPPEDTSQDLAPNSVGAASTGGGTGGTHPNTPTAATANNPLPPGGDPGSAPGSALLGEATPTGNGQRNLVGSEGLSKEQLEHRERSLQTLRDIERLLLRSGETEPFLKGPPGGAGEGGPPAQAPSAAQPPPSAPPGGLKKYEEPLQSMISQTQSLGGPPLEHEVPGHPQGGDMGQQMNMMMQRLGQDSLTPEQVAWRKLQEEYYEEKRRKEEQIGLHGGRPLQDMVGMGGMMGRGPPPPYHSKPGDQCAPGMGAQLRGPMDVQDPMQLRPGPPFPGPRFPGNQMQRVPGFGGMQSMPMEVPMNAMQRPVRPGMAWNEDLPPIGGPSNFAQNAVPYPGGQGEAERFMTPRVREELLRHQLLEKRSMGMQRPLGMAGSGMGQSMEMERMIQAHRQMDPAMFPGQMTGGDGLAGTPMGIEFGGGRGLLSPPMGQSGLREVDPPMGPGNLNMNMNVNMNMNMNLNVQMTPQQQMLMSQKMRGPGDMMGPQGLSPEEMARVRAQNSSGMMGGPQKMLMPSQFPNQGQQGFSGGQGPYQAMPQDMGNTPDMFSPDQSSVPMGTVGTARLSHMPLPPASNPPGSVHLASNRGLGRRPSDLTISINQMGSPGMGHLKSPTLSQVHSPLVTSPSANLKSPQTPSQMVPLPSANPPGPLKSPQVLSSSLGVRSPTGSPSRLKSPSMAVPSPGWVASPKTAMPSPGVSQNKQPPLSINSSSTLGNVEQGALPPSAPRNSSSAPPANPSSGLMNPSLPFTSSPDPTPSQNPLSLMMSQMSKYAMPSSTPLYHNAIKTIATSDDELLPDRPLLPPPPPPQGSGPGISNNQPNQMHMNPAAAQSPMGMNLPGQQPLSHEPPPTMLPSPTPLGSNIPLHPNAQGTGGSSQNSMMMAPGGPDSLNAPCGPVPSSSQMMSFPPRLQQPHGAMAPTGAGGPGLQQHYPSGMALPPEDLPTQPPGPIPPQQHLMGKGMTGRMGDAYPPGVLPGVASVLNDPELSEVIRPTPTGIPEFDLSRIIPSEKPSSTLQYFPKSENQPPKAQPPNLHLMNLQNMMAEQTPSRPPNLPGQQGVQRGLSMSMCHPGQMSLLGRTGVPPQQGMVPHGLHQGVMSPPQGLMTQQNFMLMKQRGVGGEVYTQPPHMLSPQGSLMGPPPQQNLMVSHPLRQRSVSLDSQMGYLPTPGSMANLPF
Kind of assay: co-localisation in the nucleus of mouse 3T3 cells, fluorescence microscopy (indirect). Here is the method:
The plasmids for the expression of GFP-B9L and S33Y β-catenin constructed in Example 3 were transfected alone or together into mouse NIH 3T3 cells using Effectene (QIAGEN), and were forcedly expressed. GFP expression vector pEGFP-C2, as a control, was also transfected into mouse NIH 3T3 cells and was forcedly expressed. After 24 hours, the cells were fixed with formaldehyde, stained with anti-β-catenin antibody, reacted with rhodamine isothiocyanate (RITC)-labeled anti-rabbit IgG antibody, and observed by fluorescence microscopy to detect S33Y β-catenin in the cell. GFP-B9L was directly detected by observation of GFP under fluorescence microscopy (with the use of-FITC filter).
The full-length B9L cDNA obtained in Example 1 was inserted into the ECORI-SalI site of pEGFP-C2 to prepare plasmid pEGFP-C2B9L for the expression in animal cells, cotransfected with S33Y β-catenin expression plasmid into mouse 3T3 cells and the plasmids were forcedly expressed as described above, and S33Y β-catenin was. detected in the cells. Similar to theB9L protein fragment obtained by the two hybrid system, both S33Y β-catenin and GFP-B9L (full-length) were localized in the nucleus. Thus, the full-length B9L protein was also confirmed to bind to β-catenin and localizes β-catenin into the nucleus.

The target of assay [2] is T2, GAL4 BD fusion of the N-terminal half of the β-catenin arm (residues 141 to 390 of mouse β-catenin, armadillo … (yeast; mouse, UniProt P04386 1-147; Q02248 141-390).
T2 construct: Two-hybrid bait; also called N-terminal half (armadillo repeats 1-6) of the β-catenin arm
In words: yeast two-hybrid, β-galactosidase activity. The text has this: (§1) The respective bait plasmids were cotransfected with the B9L cDNA fragment-expressing clone obtained by the two-hybrid system in Example 1 into yeast HF7C strain, and the binding between the B9L protein and the respective β-catenin partial fragments were examined by the existence of β-galactosidase activity in the transformants. […] Thus, it was considered that the B9L protein binds to the N-terminal region of β-catenin arm (armadillo repeats 1-6).
(§2) In order to further examine which region of the B9L protein binds to the β-catenin arm, two-hybrid system was performed as follows. […] Each plasmid was cotransfected with the β-catenin arm bait plasmid prepared in Example 1 into yeast HF7C strain, and the binding of each B9L protein partial fragment and β-catenin arm was examined based on the presence or absence of β-galactosidase activity in the transformants. […] Thus, the B9L protein was indicated to bind to the β-catenin arm at the region of residues 292-439 in the amino acid sequence represented by SEQ ID NO: 2.

For assay [3], the target named is T3, GAL4 BD fusion of the C-terminal half of the β-catenin arm (residues 391 to 664 of mouse β-catenin, armadillo … (yeast; mouse, UniProt P04386 1-147; Q02248 391-664).
T3 construct: Two-hybrid bait; also called C-terminal half of the β-catenin arm (armadillo repeats 7-12)
Kind of assay: yeast two-hybrid, β-galactosidase activity.
Text: as §1, §2

Assay [4] deals with T4, GAL4 BD fusion of almost the entire β-catenin arm (residues 141 to 664 of mouse β-catenin) (yeast; mouse, UniProt P04386 1-147; Q02248 141-664).
T4 construct: Two-hybrid bait; also called almost entire region
In words: yeast two-hybrid, β-galactosidase activity.
Text: as §1, §2

Assay [5] concerns the target T5, GAL4-β-catenin fusion protein (GAL4 BD fused with mouse β-catenin armadillo domain, residues 128 to 683) (yeast; mouse, UniProt P04386 1-147; Q02248 128-683).
T5 construct: Bait of the yeast two-hybrid system; also called mβ-catenin arm; β-catenin arm bait plasmid
In words: yeast two-hybrid screening, HIS3 and β-galactosidase reporters. Here is the method: Screening was carried out with […] mouse fetal (Swiss Webster/NIH mouse; 17-day embryo) cDNA library, which is a library to be used for the two-hybrid system and provided by Clontech. This cDNA library contains vector pGAD10 (Clontech) with cDNA insert and, as a selection marker, LEU2 gene involved in leucine biosynthesis in yeast, and can express fusion proteins of GAL4 AD and cDNA-encoding proteins through ADH1 promoter. Specific method for the screening was conducted according to the manual attached to the library from Clontech as follows.
Specifically, both mouse fetal cDNA library for the two-hybrid system and plasmid GAL4-β-catenin prepared in (1) were introduced in yeast Saccharomyces cerevisiae HF7C strain (Clontech). HF7C strain is a yeast strain that is tryptophan-, leucine-, and histidine-auxotrophic. The strain has HIS3 gene on the chromosome wherein the gene is involved in histidine biosynthesis and has been ligated downstream of GAL1 promoter to which GAL4 BD can bind, as well as E. coli-derived β-galactosidase gene lacZ ligated downstream of a nucleotide sequence to which GAL4 BD can bind as reporter genes (Gene 212: 197 (1998)). A transformant containing both plasmid GAL4-β-catenin and cDNA clone of a protein that binds to mβ-catenin arm and expresses the respective fusion proteins, is non-auxotrophic for histidine and is positive in β-galactosidase activity. […]

B1: Mutated mouse β-catenin S33Y (other, UniProt Q02248 1-781, looked up)
chain: MATQADLMELDMAMEPDRKAAVSHWQQQSYLDYGIHSGATTTAPSLSGKGNPEEEDVDTSQVLYEWEQGFSQSFTQEQVADIDGQYAMTRAQRVRAAMFPETLDEGMQIPSTQFDAAHPTNVQRLAEPSQMLKHAVVNLINYQDDAELATRAIPELTKLLNDEDQVVVNKAAVMVHQLSKKEASRHAIMRSPQMVSAIVRTMQNTNDVETARCTAGTLHNLSHHREGLLAIFKSGGIPALVKMLGSPVDSVLFYAITTLHNLLLHQEGAKMAVRLAGGLQKMVALLNKTNVKFLAITTDCLQILAYGNQESKLIILASGGPQALVNIMRTYTYEKLLWTTSRVLKVLSVCSSNKPAIVEAGGMQALGLHLTDPSQRLVQNCLWTLRNLSDAATKQEGMEGLLGTLVQLLGSDDINVVTCAAGILSNLTCNNYKNKMMVCQVGGIEALVRTVLRAGDREDITEPAICALRHLTSRHQEAEMAQNAVRLHYGLPVVVKLLHPPSHWPLIKATVGLIRNLALCPANHAPLREQGAIPRLVQLLVRAHQDTQRRTSMGGTQQQFVEGVRMEEIVEGCTGALHILARDVHNRIVIRGLNTIPLFVQLLYSPIENIQRVAAGVLCELAQDKEAAEAIEAEGATAPLTELLHSRNEGVATYAAAVLFRMSEDKPQDYKKRLSVELTSSLFRTEPMAWNETADLGLDIGAQGEALGYRQDDPSYRSFHSGGYGQDALGMDPMMEHEMGGHHPGADYPVDGLPDLGHAQDLMDGLPPGDSNQLAWFDTDL
notes: Expressed from pMKITneo in COS-7 or NIH 3T3 cells; also called S33Y β-catenin
B1: in assay [1], the binding result is “binds”.

B2: GAL4 AD fusion of the B9L cDNA fragment clone obtained by the two-hybrid system (B9L protein residues 245 to 564, SEQ ID NO: 4) (other, not shown: large carriers)
chain: LANTAAEAVLQGRAESILAYHQQNVPRAKLDQAPKVPPTPEPLPLNTPSAGTPQSQPPPLPPPPPAPGSAPPALPPEGPPEDTSQDLAPNSVGAASTGGGTGGTHPNTPTAATANNPLPPGGDPGSAPGSALLGEATPTGNGQRNLVGSEGLSKEQLEHRERSLQTLRDIERLLLRSGETEPFLKGPPGGAGEGGPPAQAPSAAQPPPSAPPGGLKKYEEPLQSMISQTQSLGGPPLEHEVPGHPQGGDMGQQMNMMMQRLGQDSLTPEQVAWRKLQEEYYEEKRRKEEQIGLHGGRPLQDMVGMGGMMGRGPPPPYHSK
notes: Expressed in yeast HF7C as prey of the two-hybrid system; also called B9L cDNA fragment-expressing clone; bc19 like protein fragment
On to B2, for which the binding result in assay [2] is listed as “binds”; in assay [3], “no binding”; in assay [4], “binds”; in assay [5], “binds”.
